From PMC8274477 (Frontiers in Cell and Developmental Biology, 2021)

B1: CSRP3 (natural protein, human, UniProt P50461 1-194, looked up)
chain: MPNWGGGAKCGACEKTVYHAEEIQCNGRSFHKTCFHCMACRKALDSTTVAAHESEIYCKVCYGRRYGPKGIGYGQGAGCLSTDTGEHLGLQFQQSPKPARSVTTSNPSKFTAKFGESEKCPRCGKSVYAAEKVMGGGKPWHKTCFRCAICGKSLESTNVTDKDGELYCKVCYAKNFGPTGIGFGGLTQQVEKKE
notes: CSRP3; protein on the human proteome microarray; source: spotted on the HuProt human proteome microarray
B2: KHDRBS3 (natural protein, human, UniProt O75525 1-346, looked up)
chain: MEEKYLPELMAEKDSLDPSFTHALRLVNQEIEKFQKGEGKDEEKYIDVVINKNMKLGQKVLIPVKQFPKFNFVGKLLGPRGNSLKRLQEETLTKMSILGKGSMRDKAKEEELRKSGEAKYFHLNDDLHVLIEVFAPPAEAYARMGHALEEIKKFLIPDYNDEIRQAQLQELTYLNGGSENADVPVVRGKPTLRTRGVPAPAITRGRGGVTARPVGVVVPRGTPTPRGVLSTRGPVSRGRGLLTPRARGVPPTGYRPPPPPPTQETYGEYDYDDGYGTAYDEQSYDSYDNSYSTPAQSGADYYDYGHGLSEETYDSYGQEEWTNSRHKAPSARTAKGVYRDQPYGRY
notes: KHDRBS3; protein on the human proteome microarray; source: spotted on the HuProt human proteome microarray
B3: GTF2B (natural protein, human, UniProt Q00403 1-316, looked up)
chain: MASTSRLDALPRVTCPNHPDAILVEDYRAGDMICPECGLVVGDRVIDVGSEWRTFSNDKATKDPSRVGDSQNPLLSDGDLSTMIGKGTGAASFDEFGNSKYQNRRTMSSSDRAMMNAFKEITTMADRINLPRNIVDRTNNLFKQVYEQKSLKGRANDAIASACLYIACRQEGVPRTFKEICAVSRISKKEIGRCFKLILKALETSVDLITTGDFMSRFCSNLCLPKQVQMAATHIARKAVELDLVPGRSPISVAAAAIYMASQASAEKRTQKEIGDIAGVADVTIRQSYRLIYPRAPDLFPTDFKFDTPVDKLPQL
notes: GTF2B; protein on the human proteome microarray; source: spotted on the HuProt human proteome microarray
B4: CYB5R1 (natural protein, human, UniProt Q9UHQ9 1-305, looked up)
chain: MGIQTSPVLLASLGVGLVTLLGLAVGSYLVRRSRRPQVTLLDPNEKYLLRLLDKTTVSHNTKRFRFALPTAHHTLGLPVGKHIYLSTRIDGSLVIRPYTPVTSDEDQGYVDLVIKVYLKGVHPKFPEGGKMSQYLDSLKVGDVVEFRGPSGLLTYTGKGHFNIQPNKKSPPEPRVAKKLGMIAGGTGITPMLQLIRAILKVPEDPTQCFLLFANQTEKDIILREDLEELQARYPNRFKLWFTLDHPPKDWAYSKGFVTADMIREHLPAPGDDVLVLLCGPPPMVQLACHPNLDKLGYSQKMRFTY
notes: CYB5R1; protein on the human proteome microarray; source: spotted on the HuProt human proteome microarray
B5: CRYZ (natural protein, human, UniProt Q08257 1-329, looked up)
chain: MATGQKLMRAVRVFEFGGPEVLKLRSDIAVPIPKDHQVLIKVHACGVNPVETYIRSGTYSRKPLLPYTPGSDVAGVIEAVGDNASAFKKGDRVFTSSTISGGYAEYALAADHTVYKLPEKLDFKQGAAIGIPYFTAYRALIHSACVKAGESVLVHGASGGVGLAACQIARAYGLKILGTAGTEEGQKIVLQNGAHEVFNHREVNYIDKIKKYVGEKGIDIIIEMLANVNLSKDLSLLSHGGRVIVVGSRGTIEINPRDTMAKESSIIGVTLFSSTKEEFQQYAAALQAGMEIGWLKPVIGSQYPLEKVAEAHENIIHGSGATGKMILLL
notes: CRYZ; protein on the human proteome microarray; source: spotted on the HuProt human proteome microarray
B6: ISG20 (natural protein)
chain: not shown
notes: ISG20; protein on the human proteome microarray; source: spotted on the HuProt human proteome microarray
B7: FAM49B (natural protein, human, UniProt Q9NUQ9 1-324, looked up)
chain: MGNLLKVLTCTDLEQGPNFFLDFENAQPTESEKEIYNQVNVVLKDAEGILEDLQSYRGAGHEIREAIQHPADEKLQEKAWGAVVPLVGKLKKFYEFSQRLEAALRGLLGALTSTPYSPTQHLEREQALAKQFAEILHFTLRFDELKMTNPAIQNDFSYYRRTLSRMRINNVPAEGENEVNNELANRMSLFYAEATPMLKTLSDATTKFVSENKNLPIENTTDCLSTMASVCRVMLETPEYRSRFTNEETVSFCLRVMVGVIILYDHVHPVGAFAKTSKIDMKGCIKVLKDQPPNSVEGLLNALRYTTKHLNDETTSKQIKSMLQ
notes: FAM49B; protein on the human proteome microarray; source: spotted on the HuProt human proteome microarray
B8: GBGT1 (natural protein, human, UniProt Q8N5D6 1-347, looked up)
chain: MHRRRLALGLGFCLLAGTSLSVLWVYLENWLPVSYVPYYLPCPEIFNMKLHYKREKPLQPVVWSQYPQPKLLEHRPTQLLTLTPWLAPIVSEGTFNPELLQHIYQPLNLTIGVTVFAVGKYTHFIQSFLESAEEFFMRGYRVHYYIFTDNPAAVPGVPLGPHRLLSSIPIQGHSHWEETSMRRMETISQHIAKRAHREVDYLFCLDVDMVFRNPWGPETLGDLVAAIHPSYYAVPRQQFPYERRRVSTAFVADSEGDFYYGGAVFGGQVARVYEFTRGCHMAILADKANGIMAAWREESHLNRHFISNKPSKVLSPEYLWDDRKPQPPSLKLIRFSTLDKDISCLRS
notes: GBGT1; protein on the human proteome microarray; source: spotted on the HuProt human proteome microarray
B9: GCLM (natural protein, human, UniProt P48507 1-274, looked up)
chain: MGTDSRAAKALLARARTLHLQTGNLLNWGRLRKKCPSTHSEELHDCIQKTLNEWSSQINPDLVREFPDVLECTVSHAVEKINPDEREEMKVSAKLFIVESNSSSSTRSAVDMACSVLGVAQLDSVIIASPPIEDGVNLSLEHLQPYWEELENLVQSKKIVAIGTSDLDKTQLEQLYQWAQVKPNSNQVNLASCCVMPPDLTAFAKQFDIQLLTHNDPKELLSEASFQEALQESIPDIQAHEWVPLWLLRYSVIVKSRGIIKSKGYILQAKRRGS
notes: GCLM; protein on the human proteome microarray; source: spotted on the HuProt human proteome microarray
B10: C9orf9 (natural protein, human, UniProt Q96E40 1-222, looked up)
chain: MNEVKESLRSIEQKYKLFQQQQLTFTAALEHCRENAHDKIRPISSIGQVQSYMEHYCNSSTDRRVLLMFLDICSELNKLCQHFEAVHSGTPVTNNLLEKCKTLVSQSNDLSSLRAKYPHDVVNHLSCDEARNHYGGVVSLIPLILDLMKEWIAHSEKLPRKVLQHVSEPQAHQESTRGAARPAQAIGTQPRATKHKCRQLTKASLKPRGCSKPPWRPPGGKL
notes: C9orf9; protein on the human proteome microarray; source: spotted on the HuProt human proteome microarray
B11: CDCA3 (natural protein, human, UniProt Q99618 1-268, looked up)
chain: MGSAKSVPVTPARPPPHNKHLARVADPRSPSAGILRTPIQVESSPQPGLPAGEQLEGLKHAQDSDPRSPTLGIARTPMKTSSGDPPSPLVKQLSEVFETEDSKSNLPPEPVLPPEAPLSSELDLPLGTQLSVEEQMPPWNQTEFPSKQVFSKEEARQPTETPVASQSSDKPSRDPETPRSSGSMRNRWKPNSSKVLGRSPLTILQDDNSPGTLTLRQGKRPSPLSENVSELKEGAILGTGRLLKTGGRAWEQGQDHDKENQHFPLVES
notes: CDCA3; protein on the human proteome microarray; source: spotted on the HuProt human proteome microarray
B12: HTATIP2 (natural protein, human, UniProt Q9BUP3 1-242, looked up)
chain: MAETEALSKLREDFRMQNKSVFILGASGETGRVLLKEILEQGLFSKVTLIGRRKLTFDEEAYKNVNQEVVDFEKLDDYASAFQGHDVGFCCLGTTRGKAGAEGFVRVDRDYVLKSAELAKAGGCKHFNLLSSKGADKSSNFLYLQVKGEVEAKVEELKFDRYSVFRPGVLLCDRQESRPGEWLVRKFFGSLPDSWASGHSVPVVTVVRAMLNNVVRPRDKQMELLENKAIHDLGKAHGSLKP
notes: HTATIP2; protein on the human proteome microarray; source: spotted on the HuProt human proteome microarray
B13: CCNB1IP1 (natural protein, human, UniProt Q9NPC3 1-277, looked up)
chain: MSLCEDMLLCNYRKCRIKLSGYAWVTACSHIFCDQHGSGEFSRSPAICPACNSTLSGKLDIVRTELSPSEEYKAMVLAGLRPEIVLDISSRALAFWTYQVHQERLYQEYNFSKAEGHLKQMEKIYTQQIQSKDVELTSMKGEVTSMKKVLEEYKKKFSDISEKLMERNRQYQKLQGLYDSLRLRNITIANHEGTLEPSMIAQSGVLGFPLGNNSKFPLDNTPVRNRGDGDGDFQFRPFFAGSPTAPEPSNSFFSFVSPSRELEQQQVSSRAFKVKRI
notes: CCNB1IP1; protein on the human proteome microarray; source: spotted on the HuProt human proteome microarray
B14: DNALI1 (natural protein, human, UniProt O14645 1-258, looked up)
chain: MIPPADSLLKYDTPVLVSRNTEKRSPKARLLKVSPQQPGPSGSAPQPPKTKLPSTPCVPDPTKQAEEILNAILPPREWVEDTQLWIQQVSSTPSTRMDVVHLQEQLDLKLQQRQARETGICPVRRELYSQCFDELIREVTINCAERGLLLLRVRDEIRMTIAAYQTLYESSVAFGMRKALQAEQGKSDMERKIAELETEKRDLERQVNEQKAKCEATEKRESERRQVEEKKHNEEIQFLKRTNQQLKAQLEGIIAPKK
notes: DNALI1; protein on the human proteome microarray; source: spotted on the HuProt human proteome microarray
B15: CSRP1 (natural protein, human, UniProt P21291 1-193, looked up)
chain: MPNWGGGKKCGVCQKTVYFAEEVQCEGNSFHKSCFLCMVCKKNLDSTTVAVHGEEIYCKSCYGKKYGPKGYGYGQGAGTLSTDKGESLGIKHEEAPGHRPTTNPNASKFAQKIGGSERCPRCSQAVYAAEKVIGAGKSWHKACFRCAKCGKGLESTTLADKDGEIYCKGCYAKNFGPKGFGFGQGAGALVHSE
notes: CSRP1; protein on the human proteome microarray; source: spotted on the HuProt human proteome microarray
B16: EIF4H (natural protein)
chain: not shown
notes: EIF4H; protein on the human proteome microarray; source: spotted on the HuProt human proteome microarray
B17: CUTA (natural protein, human, UniProt O60888 33-179, looked up)
chain: RLLLLPRVLLTMASGSPPTQPSPASDSGSGYVPGSVSAAFVTCPNEKVAKEIARAVVEKRLAACVNLIPQITSIYEWKGKIEEDSEVLMMIKTQSSLVPALTDFVRSVHPYEVAEVIALPVEQGNFPYLQWVRQVTESVSDSITVLP
notes: CUTA; protein on the human proteome microarray; source: spotted on the HuProt human proteome microarray
B18: DECR2 (natural protein, human, UniProt Q9NUI1 1-292, looked up)
chain: MAQPPPDVEGDDCLPAYRHLFCPDLLRDKVAFITGGGSGIGFRIAEIFMRHGCHTVIASRSLPRVLTAARKLAGATGRRCLPLSMDVRAPPAVMAAVDQALKEFGRIDILINCAAGNFLCPAGALSFNAFKTVMDIDTSGTFNVSRVLYEKFFRDHGGVIVNITATLGNRGQALQVHAGSAKAAVDAMTRHLAVEWGPQNIRVNSLAPGPISGTEGLRRLGGPQASLSTKVTASPLQRLGNKTEIAHSVLYLASPLASYVTGAVLVADGGAWLTFPNGVKGLPDFASFSAKL
notes: DECR2; protein on the human proteome microarray; source: spotted on the HuProt human proteome microarray
B19: GAPDH (natural protein)
chain: not shown
notes: GAPDH; protein on the human proteome microarray; source: spotted on the HuProt human proteome microarray
B20: GSTZ1 (natural protein, human, UniProt O43708 1-216, looked up)
chain: MQAGKPILYSYFRSSCSWRVRIALALKGIDYKTVPINLIKDRGQQFSKDFQALNPMKQVPTLKIDGITIHQSLAIIEYLEEMRPTPRLLPQDPKKRASVRMISDLIAGGIQPLQNLSVLKQVGEEMQLTWAQNAITCGFNALEQILQSTAGIYCVGDEVTMADLCLVPQVANAERFKVDLTPYPTISSINKRLLVLEAFQVSHPCRQPDTPTELRA
notes: GSTZ1; protein on the human proteome microarray; source: spotted on the HuProt human proteome microarray

target: T1, OTULIN (OTU deubiquitinase with linear linkage specificity, FAM105B), His-tagged, biotin-labelled (human, UniProt Q96BN8 1-352, biotin (label; sites not stated)); assay: peptide or protein array; HuProt human proteome microarray; 5 ug/5 ml biotin-labelled LUBAC or OTULIN in solution, 1 h at room temperature; Cy5-streptavidin, scanned at 635 nm; BSA as negative control; hits: Z-score >= 3 and I_(Mean_Ratio) >= 1.4; details: both partners purified
T1 construct: OTULIN (FAM105B), cDNA in pET28a; also called HIS-OTULIN; source: E. coli BL21 (DE3), purified (His-tag Purification Resin), labelled with biotin; not shown: His6, N-terminal, kept

Binding result, binds:
B1
B2
B3
B4
B5
B6
B7
B8
B9
B10
B11
B12
B13
B14
B15
B16
B17
B18
B19
B20
